Measurements from publication PMC6629437 (Cell, 2019).
Where a chain is given by its changes, count along the chain named. Numbers in names are those of the source.

Legend:
[1] = target: T1, HA head domain of H1 A/Solomon Islands/3/2006 (Influenza A virus A/Solomon …, strain); experiment: BLI
T1 chain: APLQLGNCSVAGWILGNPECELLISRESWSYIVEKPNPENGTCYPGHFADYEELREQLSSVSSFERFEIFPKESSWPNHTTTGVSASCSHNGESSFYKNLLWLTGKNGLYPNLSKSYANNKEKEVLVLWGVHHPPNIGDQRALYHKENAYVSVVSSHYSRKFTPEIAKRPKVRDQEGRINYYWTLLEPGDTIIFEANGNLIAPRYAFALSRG

[2] = target: H1 HA of A/Texas/36/1991 (Influenza A virus A/Texas/36/1991 (H1N1), UniProt Q6WG02, strain); experiment: ELISA

B1: rFluA-20 Fab (Fab, V domains shown)
VH: QVQLEESGPGLVKPSETLSLTCSVSGVSVTSDIYYWTWIRQPPGKGLEWIGYIFYNGDTNYNPSLKSRVTMSIDTSKNEFSLRLTSVTAADTAVYFCARGTEDLGYCSSGSCPNHWGQGTLVTVSS
VL: DIVMTQSPSSLSASIGDRVTITCRPSQNIRSFLNWFQHKPGKAPKLLIYAASNLQSGVPSRFSGSGSGTEFTLTIRSLQPEDFATYYCQQSYNTPPTFGQGTKVEIK
[1]
  binding result: binds

B2: rFluA-20 IgG Y49A (L) (antibody, V domains shown)
VH: B1 VH
VL: B1 VL with Y49A
[2]
  binding result: no binding (tested: 10 μg/mL)

B3: rFluA-20 IgG D98A (H) (antibody, V domains shown)
VH: B1 VH with D103A
VL: B1 VL
[2]
  binding result: no binding (tested: 10 μg/mL)

B4: rFluA-20 IgG Q55A (L) (antibody, V domains shown)
VH: B1 VH
VL: B1 VL with Q55A
[2]
  binding result: binds
